Patent US20260250737A1, “Engineered Luciferases and Luciferin Substrates” (Monod Bio, Inc., priority 2023, published 2026)
Numbering of substitutions follows the chain as printed. Names and notes keep the numbering of the source.

B1: MBIO-5335: LgLux_4039 variant S2C, R11L, V46I, E54D; SEQ ID NO 2797 (protein)
chain: MCEEQIRQNLLRFYEALDSGDAITAASLFDPGVTITLWDGTTFTSIEEFREWFDSQFSTSKDALREISSLEVRGDTVEVTVRLSFTRNGQKHTVDLLQLFKFV
B2: MBIO-5342: LgLux_4039 variant E54G, S55T, R87S; SEQ ID NO 2802 (protein)
chain: B1 chain with C2S, L11R, I46V, D54G, S55T, R87S
B3: MBIO-5341: LgLux_4039 variant P31S; SEQ ID NO 2803 (protein)
chain: B1 chain with C2S, L11R, P31S, I46V, D54E
B4: MBIO-5338: LgLux_4039 variant T41A, H92Q; SEQ ID NO 2800 (protein)
chain: B1 chain with C2S, L11R, T41A, I46V, D54E, H92Q
B5: LgLux_4039: Large Lux fragment of MBIO-4039 (protein)
chain: B1 chain with C2S, L11R, I46V, D54E
B6: MBIO-5339: LgLux_4039 variant R11L, I23V; SEQ ID NO 2801 (protein)
chain: B1 chain with C2S, I23V, S45T, I46V, D54E
B7: MBIO-5340: LgLux_4039 variant S2T, I6L, R11L, E48K; SEQ ID NO 2804 (protein)
chain: B1 chain with C2T, I6L, I46V, E48K, D54E
B8: MBIO-5336: LgLux_4039 variant R11L; SEQ ID NO 2798 (protein)
chain: B1 chain with C2S, I46V, D54E
B9: MBIO-5337: LgLux_4039 variant R11L, D30N; SEQ ID NO 2799 (protein)
chain: B1 chain with C2S, D30N, I46V, D54E
B10: SEQ ID NO 2805: LgLux_4039 variant S19C (protein)
chain: B1 chain with C2S, L11R, S19C, I46V, D54E
B11: SEQ ID NO 2813: LgLux_4039 EP-PCR mutant T34I (protein)
chain: B1 chain with C2S, L11R, T34I, I46V, D54E
B12: SEQ ID NO 2806: LgLux_4039 EP-PCR mutant N9S (protein)
chain: B1 chain with C2S, N9S, L11R, I46V, D54E
B13: SEQ ID NO 2811: LgLux_4039 EP-PCR mutant N9I, N88D (protein)
chain: B1 chain with C2S, N9I, L11R, I46V, D54E, N88D
B14: SEQ ID NO 2807: LgLux_4039 EP-PCR mutant L99Q (protein)
chain: B1 chain with C2S, L11R, I46V, D54E, L99Q
B15: SEQ ID NO 2810: LgLux_4039 EP-PCR mutant F43L (protein)
chain: B1 chain with C2S, L11R, F43L, I46V, D54E
B16: SEQ ID NO 2809: LgLux_4039 EP-PCR mutant N9D, V103I (protein)
chain: B1 chain with C2S, N9D, L11R, I46V, D54E, V103I
B17: SEQ ID NO 2814: LgLux_4039 EP-PCR mutant E51V, K61T (protein)
chain: B1 chain with C2S, L11R, I46V, E51V, D54E, K61T
B18: SEQ ID NO 2808: LgLux_4039 EP-PCR mutant K101E (protein)
chain: B1 chain with C2S, L11R, I46V, D54E, K101E
B19: SEQ ID NO 2812: LgLux_4039 EP-PCR mutant L64F (protein)
chain: B1 chain with C2S, L11R, I46V, D54E, L64F
B20: MBIO-5374: computationally generated LgLux, SEQ ID NO 2789 (protein)
chain: MTPEERIANVRAFYAALASGDLEAAAALFDPGVTITLWDGTTFTSVEEFRAWFEEQFKTSKDALREIESIEVDGDTVRVLVRLTFVRDGEEKVVDLLQLFKFV
B21: MBIO-5376: computationally generated LgLux, SEQ ID NO 2791 (protein)
chain: B20 chain with N9D, A26K, T84S, V86T, D88N, E90Q, E91K, K92H, V93T, V103I
B22: MBIO-5375: computationally generated LgLux, SEQ ID NO 2790 (protein)
chain: B20 chain with N9D, A26K, T84S, V86T, D88N, E90Q, E91K, K92H, V93T

These molecules were tested on construct containing Small Lux (SmLux), Large Lux (LgLux), FKBP and FRB (assay: LuxSit split optimization: SmLux-LgLux-FKBP-FRB construct on the surface of yeast, rapamycin-induced signal). Conditions: Table 19, LgLux variants, 50 uM substrate 1c.
Assay type: biochemical
Description: To optimize the function of the LuxSit Splits, a construct containing Small Lux (SmLux), Large Lux (LgLux) and the proteins that bind the molecule Rapamycin (FKBP and FRB), connected by GS linkers, was expressed on the surface of yeast. When 50 uM of substrate 1c is added to yeast expressing this construct, a baseline signal is observed due to SmLux and LgLux reconstitution. When 20 uM of Rapamycin is added, SmLux and LgLux are brought closer to each other by FKBP and FRB, enhancing their reconstitution. As a result, an increase in signal is observed.
Libraries of SmLux and LgLux were assembled and tested independently to identify variants with lower baseline and higher fold change.

Molecule	Baseline Signal (Normalized by expression)
B1	23769.5
B2	3361.4
B3	10433.7
B4	18945.1
B5	22064.6
B6	28286
B7	6666.1
B8	16379.8
B9	14853.7
B10	3667.6

Same assay, conditions: Table 19, LgLux variants, 50 uM substrate 1c, 20 uM Rapamycin

Molecule	Fold change upon Rap addition
B1	1.9
B2	2
B3	2.2
B4	2.2
B5	1.9
B6	1.9
B7	2.2
B8	2.1
B9	2.1
B10	2

What follows are molecules tested on SmLux (assay: LgLux stability optimization: error-prone PCR LgLux mutants on yeast, protease treatment, SmLux complementation). Conditions: Table 20; EP-PCR LgLux mutants on yeast; 50 uM substrate 1c.
Assay type: biochemical
Description: LgLux mutants were generated by error-prone PCR (EP-PCR) and treated with protease and their activity measured as depicted schematically in FIG. 44.
Yeast expressing a library of the LgLux mutants were incubated with proteases and screened to select variants that were stable enough to resist proteolysis. Functional variants were selected by adding 50 uM of substrate 1c and 200 nM of SmLux.
The nucleotide sequence encoding LgLux_4039 was subjected to EP-PCR to identify protease-stable mutants. The sequences (SEQ ID NOs: 2806-2814) and activity of the mutants are summarized below in Table 20.

Molecule	Baseline Signal (Normalized by expression)
B11	241.6
B12	973.7
B13	232.7
B14	738.4
B15	327.2
B16	638.6
B5	417.8
B17	934.2
B18	228.3
B19	233.2

Same assay, conditions: Table 20; EP-PCR LgLux mutants on yeast; 50 uM substrate 1c, 200 nM SmLux

Molecule	Fold change upon SmLux peptide addition
B11	52
B12	126.7
B13	55.5
B14	83.3
B15	81.7
B16	170
B5	78.5
B17	53.1
B18	86.8
B19	61.7

What follows are molecules tested on SmLux (assay: Computationally generated LgLux variants expressed in E. coli, tested in lysates with SmLux and substrate 1c). Conditions: 20 uM SmLux, 50 uM substrate 1c.
Assay type: biochemical
Method in brief: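 Variants expressed in E. coli and screened as lysates, complemented with 20 uM SmLux and given 50 uM substrate 1c; luminescent activity measured.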

Molecule	Fold change upon SmLux peptide addition
B5	214.43

Same assay, conditions: 50 uM substrate 1c, before SmLux peptide addition

Molecule	Baseline Signal (Normalized by expression)
B5	299.2

Same assay, conditions: Table 22, 20 uM SmLux, 50 uM substrate 1c

Molecule	Fold change upon SmLux peptide addition
B20	240.47
B21	245.29
B22	98.41
B5	360.49

Same assay, conditions: Table 22, 50 uM substrate 1c

Molecule	Baseline Signal (Normalized by expression)
B20	796
B21	409.4
B22	207.6
B5	1766.6
